These results are taken from IntAct's records for PubMed 16456538.

The chains are these.
B1: Uncharacterized protein TRE1 (Saccharomyces cerevisiae), Q08919 (parent)
chain: MVNTRGYTTLPNVEEPANNSQDELNSQDFEQAIGMPSEPPVYVEEMGMEEPQAPEAFSEKVQRFRMCFENNVVIPVKKNVVDPLAQMISLASEKFDLFLSKIGNVMVMRRIFYIMMMSIIAALIIASDRLPNGKARGSNGSFSDHDLLLQYARKSIDLSKIERDLEYISSMPHMSGTSGDAAIRHYIKESFDKNGIRLAGEEEFMAYSNYPGNVSLRVYSKDDTEGFDIPLNEENFNPMSHNGQLNNIPVIYANKASLDDMASMQDQGLLNGDFILLVHYGDYVFQQMLTAQEYGAKAIIFISEPYQDNKDVIQMKSVALPQYGTGDALTPEWEGSIRDPIDATEAKCLPKIPSIPISANQGDKILAILSDTGVKFSNNLFSGSLNDCRLDLLVQTAIRERHPVHDIVGKIEGSEQAGRAIVIAAPRNSASYGTMYPSFGTVVLLSLIQLYQEMVYKFDWKPLRNIYFISFGGSEFNEAGATELMEKRTEALKSEIYTIIDVGQIGIWDDSNNLEIQCHPLLVDLFQKNMTSRKFNVKVDNVHQFGDWTPYLAQGIPVAIISSPGVMNREHPIYTVEDKFDFIKDKLRDKKKGEVLSEIMLYLVEKSLELIDDPFIPFSISNYVDFLSTTLKDLQKECPDTVNFDEVFLGTTLWENTKLQFEKWKSEWTELMYGAGTYIEPTIIAINRWSWNYLLSLIGVTQCLEEGLMDRTFYKNVIFGPKLWVDKGDPLRSWTFPEIRDTIAIKDWSSVQVQANTLGTILQNTARYFLENKNLHGINTNEF

In the first assay the parent is B1. To be noted: with rsp5_yeast RSP5, P39940.
rsp5_yeast RSP5, P39940, sequence (P39940 whole entry): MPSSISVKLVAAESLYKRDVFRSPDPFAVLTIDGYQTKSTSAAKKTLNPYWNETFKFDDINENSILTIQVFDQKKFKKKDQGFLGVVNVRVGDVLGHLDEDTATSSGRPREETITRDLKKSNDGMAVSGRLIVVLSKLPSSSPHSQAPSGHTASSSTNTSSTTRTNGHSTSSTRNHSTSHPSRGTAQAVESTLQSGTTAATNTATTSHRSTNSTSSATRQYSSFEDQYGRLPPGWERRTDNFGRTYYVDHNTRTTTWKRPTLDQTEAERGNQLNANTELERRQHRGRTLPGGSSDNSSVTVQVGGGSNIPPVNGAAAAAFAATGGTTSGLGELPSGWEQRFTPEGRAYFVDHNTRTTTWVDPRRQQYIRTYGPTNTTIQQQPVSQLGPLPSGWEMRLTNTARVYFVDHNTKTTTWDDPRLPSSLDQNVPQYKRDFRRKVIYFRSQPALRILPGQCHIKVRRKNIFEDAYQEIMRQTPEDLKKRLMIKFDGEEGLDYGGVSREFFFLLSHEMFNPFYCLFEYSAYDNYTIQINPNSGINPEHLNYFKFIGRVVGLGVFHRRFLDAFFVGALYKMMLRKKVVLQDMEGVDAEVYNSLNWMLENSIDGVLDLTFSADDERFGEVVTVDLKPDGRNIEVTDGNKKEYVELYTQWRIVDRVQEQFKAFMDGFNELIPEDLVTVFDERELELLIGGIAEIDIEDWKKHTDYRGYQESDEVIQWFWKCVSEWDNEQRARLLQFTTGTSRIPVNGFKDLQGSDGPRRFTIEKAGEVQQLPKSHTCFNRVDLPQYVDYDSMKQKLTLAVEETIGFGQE
As to Y42G, the “effect of a mutation on the interaction” value is “disrupting interaction”.

V41A: the “effect of a mutation on the interaction” value is recorded as “disrupting interaction”.

Another assay covers variants of B1. To be noted: with rsp5_yeast RSP5, P39940. The source holds these as a separate data set.
Take Y42G: the “effect of a mutation on the interaction” value is listed as “decreasing interaction”.
